{
  "source": "paper PMC10611921",
  "about": "“Assessing the dynamics and macromolecular interactions of the intrinsically disordered protein YY1” (Bioscience Reports, 2023)",
  "binders": {"B1": {"name": "AAV P5 DNA (dsDNA)", "DNA 1": "AGGGTCTCCATTTTGAAGCG", "DNA 2": "CGCTTCAAAATGGAGACCCT"}, "B2": {"name": "CNTNAP2 DNA (dsDNA)", "DNA 1": "TTTGATTGTTTACTTTGTTC", "DNA 2": "GAACAAAGTAAACAATCAAA"}, "B3": {"name": "FOXP2 forkhead domain (FHD) (domain or fragment, UniProt O15409 504-594, looked up)", "chain": "RPPFTYATLIRQAIMESSDRQLTLNEIYSWFTRTFAYFRRNAATWKNAVRHNLSLHKCFVRVENVKGAVWTVDEVEYQKRRSQKITGSPTL", "notes": "also called FOXP2 FHD; forkhead box P2 forkhead domain; source: T7 cells (Genscript), pET-11A plasmid, purified (IMAC on nickel; His-tag removed with thrombin, benzamidine and HiTrap columns); not shown: His6, N-terminal, cleaved"}},
  "key": {"[1]": {"target": "T1, FOXP2 FHD (UniProt O15409 504-594)", "T1 sequence": "B3 chain", "assay": "EMSA; control gel; no specific binding; Anisotropy: 10 mM HEPES pH 7.5, 100 mM NaCl, 20 C; EMSA: 0.5 uM DNA, 20% (v/v) of binding buffer (10 mM HEPES pH 7.5, 1 mM MgCl2, 100 mM KCl, 10% glycerol, 0.1)", "settings": "protein: recombinant; tags: His6 removed with thrombin"}, "[2]": {"target": "YY1 labelled with NTA ATTO 550 (UniProt P25490 1-414)", "sequence (P25490 whole entry)": "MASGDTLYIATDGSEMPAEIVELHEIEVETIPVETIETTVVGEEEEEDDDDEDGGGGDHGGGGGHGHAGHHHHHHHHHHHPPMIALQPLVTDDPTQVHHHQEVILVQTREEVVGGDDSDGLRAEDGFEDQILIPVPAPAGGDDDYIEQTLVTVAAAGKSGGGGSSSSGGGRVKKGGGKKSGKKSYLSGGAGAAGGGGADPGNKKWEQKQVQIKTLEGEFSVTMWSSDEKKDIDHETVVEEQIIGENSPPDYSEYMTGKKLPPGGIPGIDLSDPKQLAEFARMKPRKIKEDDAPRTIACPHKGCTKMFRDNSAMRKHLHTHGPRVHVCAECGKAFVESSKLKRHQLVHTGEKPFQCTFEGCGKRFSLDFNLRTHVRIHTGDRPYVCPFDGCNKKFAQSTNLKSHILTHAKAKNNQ", "assay": "fluorescence anisotropy; apparent KD; 0.2 uM labelled YY1, DNA titrated; 100 mM NaCl; Anisotropy: 10 mM HEPES pH 7.5, 100 mM NaCl, 20 C; EMSA: 0.5 uM DNA, 20% (v/v) of binding buffer (10 mM HEPES pH 7.5, 1 mM MgCl2, 100 mM KCl, 10% glycerol, 0.1)", "settings": "protein: recombinant; tags: N-terminal His6 (NTA ATTO 550 label)"}, "[3]": {"target": "T1, FOXP2 FHD", "assay": "EMSA; single complex, no YY1; Anisotropy: 10 mM HEPES pH 7.5, 100 mM NaCl, 20 C; EMSA: 0.5 uM DNA, 20% (v/v) of binding buffer (10 mM HEPES pH 7.5, 1 mM MgCl2, 100 mM KCl, 10% glycerol, 0.1)", "settings": "protein: recombinant; tags: His6 removed with thrombin"}, "[4]": {"target": "T2, Yin Yang 1 (YY1), full-length, N-terminal hexahistidine tag (UniProt P25490 1-414, NTA ATTO 550 on the N-terminal hexahistidine tag (the labelled copy in the anisotropy assays))", "T2 construct": "YY1 (Yin Yang 1), full-length construct; A heterogeneous mixture of oligomers in solution; In the anisotropy assays 0.2 μM YY1 carried NTA ATTO 550 on the His tag; the titrated YY1 was unlabelled; also called Ying Yang 1; source: T7 cells (Genscript), pET-11A plasmid, purified (IMAC on cobalt, size exclusion chromatography); not shown: His6, N-terminal, kept", "T2 sequence (P25490 whole entry)": "as above", "assay": "fluorescence polarisation; fluorescence anisotropy; unlabelled FOXP2 FHD titrated into 0.2 μM YY1 labelled with NTA ATTO 550; 100 mM NaCl, 10 mM HEPES pH 7.5, 20°C; single site model, apparent KD", "settings": "both partners purified"}, "[5]": {"target": "T2, Yin Yang 1 (YY1), full-length, …", "assay": "fluorescence polarisation; fluorescence anisotropy; unlabelled FOXP2 FHD titrated into 0.2 μM YY1 labelled with NTA ATTO 550; 300 mM NaCl, 10 mM HEPES pH 7.5, 20°C; single site model, apparent KD", "settings": "both partners purified"}, "[6]": {"target": "T2, Yin Yang 1 (YY1), full-length, …", "assay": "fluorescence polarisation; fluorescence anisotropy; unlabelled FOXP2 FHD titrated into 0.2 μM YY1 labelled with NTA ATTO 550; 500 mM NaCl, 10 mM HEPES pH 7.5, 20°C; single site model, apparent KD", "settings": "both partners purified"}, "[7]": {"target": "T2, Yin Yang 1 (YY1), full-length, …", "assay": "fluorescence polarisation; fluorescence anisotropy; unlabelled FOXP2 FHD titrated into 0.2 μM YY1 labelled with NTA ATTO 550 in the presence of 10 μM background AAV P5 promoter DNA (YY1 specific); 100 mM NaCl, 10 mM HEPES pH 7.5, 20°C", "settings": "both partners purified"}},
  "data": [
    {"binder": "B1", "values": [
      {"measurement": "binding result", "setting": "[1]", "value": "no binding"},
      {"measurement": "Kd", "setting": "[2]", "value": "3.7 ± 0.4", "unit": "µM"}
    ]},
    {"binder": "B2", "values": [
      {"measurement": "binding result", "setting": "[3]", "value": "binds"}
    ]},
    {"binder": "B3", "values": [
      {"measurement": "Kd", "setting": "[4]", "value": "~73", "unit": "µM"},
      {"measurement": "Kd", "setting": "[5]", "value": "~28", "unit": "µM"},
      {"measurement": "Kd", "setting": "[6]", "value": "~67", "unit": "µM"},
      {"measurement": "Kd", "setting": "[7]", "value": "58 ± 6", "unit": "µM"}
    ]}
  ]
}
